# Assay results: patent US20150299268A1 (UNIVERSITY OF MARYLAND BALTIMORE, published 2015)
# B1: JR4 (antibody, V domains shown)
# VH: EVQLVESGPGLVKPLETLSLTCAVPGGSIRRNYWSWIRQPPGKGLEWIGHSYGSGGSTNYNPSLESRVTLSVDTSKNLFSLKLTSVTAADTAVYYCARTVWYYTSGTHYFDHWGQGVLVTVSS
# VL: QSVLTQPPSVSAAPGQKVTISCSGSSSNIGRSYVSWYQQVPGAAPKLLIYDTNKRPSGVSDRFSGSKSGSSASLAITGLQTGDEADYYCGAWDGSLNVHIFGSGTKLTVL
# B2: b12 (antibody, V domains shown)
# VH: QVQLVQSGAEVKKPGASVKVSCQASGYRFSNFVIHWVRQAPGQRFEWMGWINPYNGNKEFSAKFQDRVTFTADTSANTAYMELRSLRSADTAVYYCARVGPYSWDDSPQDNYYMDVWGKGTTVIVSS
# VL: EIVLTQSPGTLSLSPGERATFSCRSSHSIRSRRVAWYQHKPGQAPRLVIHGVSNRASGISDRFSGSGSGTDFTLTITRVEPEDFALYYCQVYGASSYTFGQGTKLERK
# Experiments:
# gp120-JR4-ScFV [1] = test: ELISA
# BaL-gp120 [2] = target: T1, BaL-gp120 (HIV-1 BaL); test: ELISA
# T1 construct: domain: gp120; also called monomeric gp120; monomeric BaL gp120
# FLSC R/T = target: T2, FLSC R/T (HIV-1, UniProt P01730 26-208); test: ELISA
# T2 construct: not shown: linker of FLSC not described
# gp120-b12-ScFV = test: ELISA
# gp120-JR4-ScFV [3] = test: ELISA; remark: listed apart in the source
# gp120-JR48.1-ScFV = test: ELISA
# BaL-gp120 [4] = target: T1, BaL-gp120; test: capture ELISA
# BaL-gp120-E31A = target: T3, BaL-gp120-E31A (HIV-1 BaL); test: capture ELISA
# T3 construct: domain: gp120
# BaL-gp120-E32A = target: T4, BaL-gp120-E32A (HIV-1 BaL); test: capture ELISA
# T4 construct: domain: gp120
# BaL-gp120-K33A = target: T5, BaL-gp120-K33A (HIV-1 BaL); test: capture ELISA
# T5 construct: domain: gp120
# BaL-gp120-W35A = target: T6, BaL-gp120-W35A (HIV-1 BaL); test: capture ELISA
# T6 construct: domain: gp120
# BaL-gp120-Y39A = target: T7, BaL-gp120-Y39A (HIV-1 BaL); test: capture ELISA
# T7 construct: domain: gp120
# BaL-gp120-Y40A = target: T8, BaL-gp120-Y40A (HIV-1 BaL); test: capture ELISA
# T8 construct: domain: gp120
# BaL-gp120-V44A = target: T9, BaL-gp120-V44A (HIV-1 BaL); test: capture ELISA
# T9 construct: domain: gp120
# BaL-gp120-W45A = target: T10, BaL-gp120-W45A (HIV-1 BaL); test: capture ELISA
# T10 construct: domain: gp120
# BaL-gp120-K46A = target: T11, BaL-gp120-K46A (HIV-1 BaL); test: capture ELISA
# T11 construct: domain: gp120
# BaL-gp120-E47A = target: T12, BaL-gp120-E47A (HIV-1 BaL); test: capture ELISA
# T12 construct: domain: gp120
# BaL-gp120-E47AE91A = target: T13, BaL-gp120-E47AE91A (HIV-1 BaL); test: capture ELISA
# T13 construct: domain: gp120
# BaL-gp120-F53A = target: T14, BaL-gp120-F53A (HIV-1 BaL); test: capture ELISA
# T14 construct: domain: gp120
# BaL-gp120-D57A = target: T15, BaL-gp120-D57A (HIV-1 BaL); test: capture ELISA
# T15 construct: domain: gp120
# BaL-gp120-D57AD62A = target: T16, BaL-gp120-D57AD62A (HIV-1 BaL); test: capture ELISA
# T16 construct: domain: gp120
# BaL-gp120-D57AD78A = target: T17, BaL-gp120-D57AD78A (HIV-1 BaL); test: capture ELISA
# T17 construct: domain: gp120
# BaL-gp120-R58AK59A = target: T18, BaL-gp120-R58AK59A (HIV-1 BaL); test: capture ELISA
# T18 construct: domain: gp120
# BaL-gp120-Y61A = target: T19, BaL-gp120-Y61A (HIV-1 BaL); test: capture ELISA
# T19 construct: domain: gp120
# BaL-gp120-D62A = target: T20, BaL-gp120-D62A (HIV-1 BaL); test: capture ELISA
# T20 construct: domain: gp120
# BaL-gp120-V68A = target: T21, BaL-gp120-V68A (HIV-1 BaL); test: capture ELISA
# T21 construct: domain: gp120
# BaL-gp120-W69A = target: T22, BaL-gp120-W69A (HIV-1 BaL); test: capture ELISA
# T22 construct: domain: gp120
# BaL-gp120-V75A = target: T23, BaL-gp120-V75A (HIV-1 BaL); test: capture ELISA
# T23 construct: domain: gp120
# BaL-gp120-P76A = target: T24, BaL-gp120-P76A (HIV-1 BaL); test: capture ELISA
# T24 construct: domain: gp120
# BaL-gp120-D78A = target: T25, BaL-gp120-D78A (HIV-1 BaL); test: capture ELISA
# T25 construct: domain: gp120
# BaL-gp120-H105A = target: T26, BaL-gp120-H105A (HIV-1 BaL); test: capture ELISA
# T26 construct: domain: gp120
# BaL-gp120-E106AD107A = target: T27, BaL-gp120-E106AD107A (HIV-1 BaL); test: capture ELISA
# T27 construct: domain: gp120
# BaL-gp120-I420R = target: T28, BaL-gp120-I420R (HIV-1 BaL); test: capture ELISA
# T28 construct: domain: gp120; also called -1420R
# BaL-gp120-I423A = target: T29, BaL-gp120-I423A (HIV-1 BaL); test: capture ELISA
# T29 construct: domain: gp120
# BaL-gp120-T455A = target: T30, BaL-gp120-T455A (HIV-1 BaL); test: capture ELISA
# T30 construct: domain: gp120
# BaL-gp120-R476A = target: T31, BaL-gp120-R476A (HIV-1 BaL); test: capture ELISA
# T31 construct: domain: gp120
# BaL-gp120-R476AR480A = target: T32, BaL-gp120-R476AR480A (HIV-1 BaL); test: capture ELISA
# T32 construct: domain: gp120
# BaL-gp120-K487AK490A = target: T33, BaL-gp120-K487AK490A (HIV-1 BaL); test: capture ELISA
# T33 construct: domain: gp120
# BaL-gp120-I491A = target: T34, BaL-gp120-I491A (HIV-1 BaL); test: capture ELISA
# T34 construct: domain: gp120
# BaL-gp120-E492A = target: T35, BaL-gp120-E492A (HIV-1 BaL); test: capture ELISA
# T35 construct: domain: gp120
# BaL-gp120-P493A = target: T36, BaL-gp120-P493A (HIV-1 BaL); test: capture ELISA
# T36 construct: domain: gp120
# BaL-gp120-L494A = target: T37, BaL-gp120-L494A (HIV-1 BaL); test: capture ELISA
# T37 construct: domain: gp120
# BaL-gp120-G495A = target: T38, BaL-gp120-G495A (HIV-1 BaL); test: capture ELISA
# T38 construct: domain: gp120
# BaL-gp120-V496A = target: T39, BaL-gp120-V496A (HIV-1 BaL); test: capture ELISA
# T39 construct: domain: gp120
# BaL-gp120-P498A = target: T40, BaL-gp120-P498A (HIV-1 BaL); test: capture ELISA
# T40 construct: domain: gp120
# BaL-gp120-T499A = target: T41, BaL-gp120-T499A (HIV-1 BaL); test: capture ELISA
# T41 construct: domain: gp120
# BaL-gp120-K500A = target: T42, BaL-gp120-K500A (HIV-1 BaL); test: capture ELISA
# T42 construct: domain: gp120
# BaL-gp120-dV1 = BaL-gp120-dV1 (HIV-1 BaL); test: capture ELISA
# BaL-gp120-dV2 = BaL-gp120-dV2 (HIV-1 BaL); test: capture ELISA
# BaL-gp120-dV3 = BaL-gp120-dV3 (HIV-1 BaL); test: capture ELISA
# BaL-gp120-mV3 = BaL-gp120-mV3 (HIV-1 BaL); test: capture ELISA
# core-D7 = core-D7 (HIV-1); test: capture ELISA
# core-V1V2-D7 = core-V1V2-D7 (HIV-1); test: capture ELISA
# core-V3-D7 = core-V3-D7 (HIV-1); test: capture ELISA
# BaL-gp120-S158A = target: T43, BaL-gp120-S158A (HIV-1 BaL); test: capture ELISA
# T43 construct: domain: gp120
# BaL-gp120-T162A = target: T44, BaL-gp120-T162A (HIV-1 BaL); test: capture ELISA
# T44 construct: domain: gp120; glycan mutant
# BaL-gp120-S200A = target: T45, BaL-gp120-S200A (HIV-1 BaL); test: capture ELISA
# T45 construct: domain: gp120; also called 5200A
# BaL-gp120-T303A = target: T46, BaL-gp120-T303A (HIV-1 BaL); test: capture ELISA
# T46 construct: domain: gp120; glycan mutant, V3 region
binder,measurement,setting,value
B1,binding result,gp120-JR4-ScFV [1],no binding (tested: >100 fold of the Ab needed on gp120)
same,Fold of Ab needed for ELISA binding OD equal to half max on gp120,BaL-gp120 [2],1 fold
same,Fold of Ab needed for ELISA binding OD equal to half max on gp120,FLSC R/T,0.11 fold
same,Fold of Ab needed for ELISA binding OD equal to half max on gp120,gp120-b12-ScFV,0.09 fold
same,Fold of Ab needed for ELISA binding OD equal to half max on gp120,gp120-JR4-ScFV [3],> 100 fold
same,Fold of Ab needed for ELISA binding OD equal to half max on gp120,gp120-JR48.1-ScFV,0.21 fold
B2,% Binding,BaL-gp120 [4],100%
same,% Binding,BaL-gp120-E31A,86%
same,% Binding,BaL-gp120-E32A,104%
same,% Binding,BaL-gp120-K33A,89%
same,% Binding,BaL-gp120-W35A,107%
same,% Binding,BaL-gp120-Y39A,90%
same,% Binding,BaL-gp120-Y40A,106%
same,% Binding,BaL-gp120-V44A,94%
same,% Binding,BaL-gp120-W45A,96%
same,% Binding,BaL-gp120-K46A,93%
same,% Binding,BaL-gp120-E47A,100%
same,% Binding,BaL-gp120-E47AE91A,86%
same,% Binding,BaL-gp120-F53A,91%
same,% Binding,BaL-gp120-D57A,95%
same,% Binding,BaL-gp120-D57AD62A,103%
same,% Binding,BaL-gp120-D57AD78A,96%
same,% Binding,BaL-gp120-R58AK59A,101%
same,% Binding,BaL-gp120-Y61A,85%
same,% Binding,BaL-gp120-D62A,98%
same,% Binding,BaL-gp120-V68A,83%
same,% Binding,BaL-gp120-W69A,97%
same,% Binding,BaL-gp120-V75A,93%
same,% Binding,BaL-gp120-P76A,96%
same,% Binding,BaL-gp120-D78A,92%
same,% Binding,BaL-gp120-H105A,100%
same,% Binding,BaL-gp120-E106AD107A,80%
same,% Binding,BaL-gp120-I420R,101%
same,% Binding,BaL-gp120-I423A,96%
same,% Binding,BaL-gp120-T455A,90%
same,% Binding,BaL-gp120-R476A,101%
same,% Binding,BaL-gp120-R476AR480A,68%
same,% Binding,BaL-gp120-K487AK490A,85%
same,% Binding,BaL-gp120-I491A,98%
same,% Binding,BaL-gp120-E492A,105%
same,% Binding,BaL-gp120-P493A,95%
same,% Binding,BaL-gp120-L494A,95%
same,% Binding,BaL-gp120-G495A,90%
same,% Binding,BaL-gp120-V496A,100%
same,% Binding,BaL-gp120-P498A,97%
same,% Binding,BaL-gp120-T499A,107%
same,% Binding,BaL-gp120-K500A,93%
same,% Binding,BaL-gp120-dV1,90%
same,% Binding,BaL-gp120-dV2,87%
same,% Binding,BaL-gp120-dV3,109%
same,% Binding,BaL-gp120-mV3,100%
same,% Binding,core-D7,106%
same,% Binding,core-V1V2-D7,103%
same,% Binding,core-V3-D7,102%
same,% Binding,BaL-gp120-S158A,80%
same,% Binding,BaL-gp120-T162A,110%
same,% Binding,BaL-gp120-S200A,86%
same,% Binding,BaL-gp120-T303A,92%
